Test results taken from patent US20220041711A1 (NGM BIOPHARMACEUTICALS, published 2022).
Like-named read-outs stand apart in the source and are kept apart here. Each block holds one binder with its values, some of them ahead of it.

How the values were obtained:
[1] = target: T1, mouse LAIR-1 (form in the assay not stated) (mouse, UniProt Q8BG84 22-144, limits assumed); assay: SPR (Biacore)
T1 sequence: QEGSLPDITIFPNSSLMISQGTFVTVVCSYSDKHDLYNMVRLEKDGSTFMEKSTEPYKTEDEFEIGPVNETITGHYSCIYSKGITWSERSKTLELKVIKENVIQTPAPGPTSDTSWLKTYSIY

[2] = target: T2, cyno LAIR-1-CD3ζ chimeric receptor on NFAT-GFP reporter cells (cynomolgus monkey; human); assay: cell-based or functional assay
[3] = target: T3, human LAIR-1-CD3ζ chimeric receptor on NFAT-GFP reporter cells (human, UniProt P20963 31-164, limits assumed); assay: cell-based or functional assay
human LAIR-1-ECD = target: T4, human LAIR-1-ECD (human, UniProt Q6GTX8 22-165); assay: SPR (Biacore) as in Example 2
T4 construct: Recombinant, expressed in mammalian cells; also called extracellular region of human LAIR-1
T4 chain: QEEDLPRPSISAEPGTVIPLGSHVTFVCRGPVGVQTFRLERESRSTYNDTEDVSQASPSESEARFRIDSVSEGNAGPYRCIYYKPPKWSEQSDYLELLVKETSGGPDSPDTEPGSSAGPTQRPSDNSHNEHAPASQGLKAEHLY

human LAIR-1-Fc = target: T5, human LAIR-1-Fc (human, UniProt Q6GTX8 22-165); assay: ELISA blocking: plate coated with 5 µg/mL human collagen type 1, antibody titrated, 1 µg/mL biotinylated human LAIR-1-Fc, streptavidin-HRP, OD650
T5 construct: also called biotinylated human LAIR-1-Fc; not shown: a Fc region
T5 chain: T4 chain

[4] = target: T1, mouse LAIR-1 (form in the assay not …); assay: not described
[5] = target: T2, cyno LAIR-1-CD3ζ chimeric receptor on …; assay: cell-based or functional assay; remark: listed apart in the source
[6] = target: T3, human LAIR-1-CD3ζ chimeric receptor on …; assay: cell-based or functional assay; remark: listed apart in the source
[7] = target: T3, human LAIR-1-CD3ζ chimeric receptor on …; assay: cell-based or functional assay; remark: listed apart in the source

- Kd [1]: 1.1 nM
- koff [1]: 0.00057 s⁻¹
- kon [1]: 530000 M⁻¹ s⁻¹
B1: ch43H2 (antibody, V domains shown)
VH: EVQLVESGGGLVQPGRSLKVSCAASGFTFSNYGIHWIRQAPTKGLEWVASISPSGRSTYFRDSVKGRFTISRDNAKNTLYLQLDSLRSEDTATYYCATGINYSSFDYWGQGVMVTVSS
VL: DIVMTQSPTSMSISVGDRVTMNCKASQNVGSHVDWYQQKTGQSPKLLISTASNRYTGVPDRFTGSGSGTDFTFTINNMQTEDLAVYYCMQSNSYPPTFGGGTKLELK
notes: also called purified ch43H2

- IC50 (read off the curve): % GFP+ cyno LAIR-1 reporter cells on polymerized collagen matrix [2]: ~0.2 nM
- IC50 (read off the curve): % GFP+ human LAIR-1 reporter cells on polymerized collagen matrix [3]: ~0.03 nM
- Kd (human LAIR-1-ECD): 1.1 nM
- koff (human LAIR-1-ECD): 0.00079 s⁻¹
- kon (human LAIR-1-ECD): 700000 M⁻¹ s⁻¹
- IC50 (read off the curve) (human LAIR-1-Fc): ~3 nM
- binding result [4]: no binding
- IC50 (read off the curve): % GFP+ cyno LAIR-1 reporter cells on coated MARCO-his [5]: ~0.2 nM
- IC50 (read off the curve): % GFP+ cyno LAIR-1 reporter cells on coated collagen 1 [5]: ~0.4 nM
- IC50 (read off the curve): % GFP+ cyno LAIR-1 reporter cells on coated collagen 4 [5]: ~0.2 nM
- IC50 (read off the curve): % GFP+ human LAIR-1 reporter cells on coated MARCO-his [6]: ~0.05 nM
- IC50 (read off the curve): % GFP+ human LAIR-1 reporter cells on coated collagen 1 [6]: ~0.04 nM
- IC50 (read off the curve): % GFP+ human LAIR-1 reporter cells on coated collagen 4 [6]: ~0.03 nM
B2: humanized anti-LAIR-1 antibody Hz62G10.v1 (antibody, human IgG1, kappa, N297G, V domains shown)
VH: EVQLVESGGGLVKPGGSLRLSCAASGFTFNINAMNWVRQAPGKGLEWVARIRTKNNNFATYYADSVKDRFTISRDDSKNTLYLQMNSLKTEDTAVYYCVRGPYFDYWGQGTLVTVSS
VL: DIQMTQSPSSLSASVGDRVTITCLASQTIGTWLAWYQQKPGKAPKLLIYAATSLADGVPSRFSGSGSGTDFTLTISSLQPEDFATYYCQQLYSTPYTFGGGTKVEIKR
notes: Humanized 62G10

- IC50 (read off the curve): % GFP+ cyno LAIR-1 reporter cells on polymerized collagen matrix [2]: ~1 nM
- IC50 (read off the curve): % GFP+ human LAIR-1 reporter cells on polymerized collagen matrix [3]: ~0.3 nM
- IC50 (read off the curve): % GFP+ human LAIR-1 reporter cells on coated MARCO-his [7]: ~0.2 nM
- IC50 (read off the curve): % GFP+ human LAIR-1 reporter cells on coated collagen 1 [7]: ~0.7 nM
- IC50 (read off the curve): % GFP+ human LAIR-1 reporter cells on coated collagen 4 [7]: ~0.4 nM
- IC50 (read off the curve) (human LAIR-1-Fc): ~5 nM
- IC50 (read off the curve): % GFP+ cyno LAIR-1 reporter cells on coated MARCO-his [5]: ~1 nM
- IC50 (read off the curve): % GFP+ cyno LAIR-1 reporter cells on coated collagen 1 [5]: ~2 nM
- IC50 (read off the curve): % GFP+ cyno LAIR-1 reporter cells on coated collagen 4 [5]: ~0.8 nM
- IC50 (read off the curve): % GFP+ human LAIR-1 reporter cells on coated MARCO-his [6]: ~0.3 nM
- IC50 (read off the curve): % GFP+ human LAIR-1 reporter cells on coated collagen 1 [6]: ~0.3 nM
- IC50 (read off the curve): % GFP+ human LAIR-1 reporter cells on coated collagen 4 [6]: ~0.2 nM
B3: anti-LAIR-1 antibody ch57D12 (antibody, V domains shown)
VH: QVQLQQSGAELARPGASVNLSCRASGYSFTSFGISWVKQRTGQGLEWIGEIYPRSDNTFYNEKFKGKATLTADKSSSTAYMELRSLTSEDSAVYFCARHFGSSSFDYWGQGTTLTVSS
VL: ENVLTQSPPIMAASLGQKVTMTCSASSSVSSIYFHWYQQKSGTSPKPLIHRASNLASGVPARFSGSGSGTSYSLTISSVEAEDDATYYCQQWSGYPLTFGGGTKLEIK
notes: The prefix 'ch' is not defined
